# Patent US20190315821A1, “COMPOSITIONS COMPRISING HEPCIDIN AND METHODS OF USE THEREOF” (La Jolla Pharmaceutical Company, priority 2018, published 2019)
# Values joined by “and” are separate entries in the source; they are usually repeats but may differ in a detail not shown here. Equal values may be shown once.
# Key:
# [1] = Thiol content assay of hepcidin-25 batches; assay type: physicochemical; settings: for Average mole thiol/[mole hepcidin]: batches of hepcidin-25 before and after purification, lower quantifiable limit 0.01; for thiol content of sample of FIG. 2: sample used in pH 2.5 / pH 5.6 stability study
# Source text: In some embodiments, the composition comprises purified hepcidin and is substantially free of thiol (e.g., unreacted, free sulfhydryl-containing cysteines). Thiols can react with the disulfide bridges of hepcidin resulting in disulfide scrambling and potential polymerization of multiple hepcidin molecules to form aggregated hepcidin. Such thiols can come from multiple sources, some of which include thiols left over from synthesis of the hepcidin, incomplete folding of hepcidin and breakage of disulfide bridges within folded hepcidin, improperly folded hepcidin and/or aggregated hepcidin. Thiols may be measured by several methods, which may include a thiol quantification assay kit such as that from Molecular Probes: Thiol and Sulfide Quantification Kit (T-6060). Such a kit uses cysteine as a standard so that thiols are reported as cysteine equivalents. In some such embodiments the thiol content is less than 0.20 mole thiol/mole hepcidin. In some preferred embodiments, the thiol content is less than 0.1 mole thiol/mole hepcidin. In more preferred embodiments, the thiol content is less than 0.05 mole thiol/mole hepcidin. In further preferred embodiments, the thiol content is less than 0.015 mole thiol/mole hepcidin. In the most preferred embodiments, the thiol content is less than 0.01 mole thiol/mole hepcidin.
# (§1) In view of the role played by intermolecular disulfide bond formation in aggregate formation, and the contribution of thiol groups to that end, multiple sources of hepcidin-25 were analyzed for thiol using a thiol content assay and evaluated for stability. Commercially available hepcidin was used in these Examples, which while “purified” to contain only hepcidin, contained thiols and aggregates, and thus may be referred to as “unpurified” to distinguish it from the compositions of the invention. […] For the purpose of this experiment the thiol impurity was removed as follows: Thiols were quenched using 1 molar equivalents of […] (NEM). The solution was then purified by tangential flow filtration (TFF) using Millipore Pellicon 2 10 kDa cassettes for aggregate removal and Pall T-Series 1 kDa for ultra-filtration-diafiltration. The starting material was diluted to less than or equal to 0.1 mg/mL prior to processing through the 10 kDa system. The diluent consisted of 15% Acetonitrile/0.05% Trifluoracetic acid (TFA).
# [2] = Stability (aggregate formation by SEC) of unpurified and purified hepcidin in 0.9% saline at 40° C.; assay type: physicochemical; settings: for Stability: aggregate formation of the batch; for aggregation at low pH: pH 2.5, 0.9% saline, over 10 days; for aggregate by SEC: pH 5.6, 0.9% saline
# Protocol: Aggregation can be measured by several different methods. In some embodiments, aggregation is measured by size exclusion high-performance liquid chromatography (SEC-HPLC). This method allows for the separation and quantification of hepcidin monomer from any aggregates including dimer, trimer and multimers. In other preferred embodiments, aggregation is measured by an isocratic method performed on an HPLC system comprised of a temperature controlled auto-sampler, a binary or quaternary pump, and an ultraviolet detector. For example, in some such embodiments, the mobile phase consists of 0.05% TFA in 50% acetonitrile and water and human hepcidin-25 (SEQ ID NO: 1) is dissolved in of 0.05% TFA to 1 mg/mL concentration. Five microliters of the solution are injected onto a Zenix-C SEC-80 column of 7.8×300 mm in dimension, 80 Å pore size and 3 μm particle size (Sepax Technologies, Newark, Del. 19711). A flow rate of 1 mL/min is used to elute the analyte from the column and deliver to the UV detector set at 214 nm. The entire run time is 13 min. Empower™ chromatography software or equivalent software is used to integrate each chromatography peak and calculate % peak area at each respective retention time.
# as §1
# The initial unpurified material and the resulting purified material were formulated in 0.9% saline at either pH 2.5 or pH 5.6 and assessed for stability at 40° C. Samples were taken over 10 days and evaluated by SEC.
# [3] = Effect of salt form on aggregate formation; assay type: physicochemical; settings: for native pH of solution: when preparing solutions of hepcidin, before pH adjustment; for aggregation when maleic acid is present: pH 4.2, 1 mg/mL maleic acid, continued aggregation then slowed
# Protocol: The trifluoroacetate, chloride and acetate salts of hepcidin were prepared and all three salt forms were formulated in 0.9% saline at pH 4.2. The hepcidin concentration was 20 mg/mL with a maleic acid concentration of either 0 mg/mL or 1 mg/mL. Samples were filtered using a 0.2 μm syringe filter and aliquoted into glass screw cap amber vials. The samples were assessed for stability at 5° C. and 25° C. Over the course of 47 days the samples were evaluated by visual inspection, pH and SEC.
# [4] = Mechanism of aggregate formation: stability studies and DTT reduction, SEC; assay type: physicochemical
# Source text: Hepcidin contains 8 cysteines, forming 4 disulfide bridges, each with the potential to become unstable under certain conditions. […] Significant work was completed to address this degradation pathway.
# Briefly, the effect of potential intermolecular disulfide bonding on aggregation was studied by adding a reducing agent to aggregated material to break all disulfide bonds. Hepcidin-25 with an aggregate content of 35% as measured by SEC was used for this study. An aliquot of this material was treated with 20 mM Dithiothreitol (DTT) and samples were evaluated by SEC.
# serum iron = settings: cited from earlier work
# [5] = Initial formulation stability (oxidation) by RP-HPLC; assay type: physicochemical
# Protocol: […] Samples were analyzed by reversed-phase high-performance liquid chromatography (RP-HPLC). […] Samples were evaluated over 4.5 months and analyzed by RP-HPLC. Under all conditions, the rate of oxidation observed was slow.
# [6] = Effect of pH 4.2 vs pH 4.8 on aggregate formation; assay type: physicochemical; settings: 9% starting aggregate, thiol removed, 0.9% sodium chloride, 5° C. and 25° C., about 50 days
# Protocol: Hepcidin-25, with 9% starting aggregate and purified to remove thiol, was dissolved in 0.9% sodium chloride and adjusted to either pH 4.2 or pH 4.8. Samples were filtered using a 0.2 μm syringe filter and aliquoted into glass screw cap amber vials. Samples were assessed for stability at both 5° C. and 25° C. Samples were taken over about 50 days and evaluated by visual inspection, pH and SEC.
substance,measurement,setting,value
"Vendor 1, Lot 1 purified: hepcidin-25 lot with thiols quenched with NEM and purified by tangential flow filtration",Average mole thiol/[mole hepcidin],[1],<0.01 mole thiol/mole hepcidin
same,thiol content of sample of FIG. 2,[1],no detectable thiol
same,Stability,[2],"Stable, very slow"
same,aggregation at low pH,[2]; 40° C.,no aggregation
same,aggregate by SEC,[2]; after 10 days at 40° C.,about 38%
"Vendor 1, Lot 1: commercially available hepcidin-25 batch containing thiols and aggregates, referred to as unpurified",Average mole thiol/[mole hepcidin],[1],0.17 mole thiol/mole hepcidin
same,thiol content of sample of FIG. 2,[1],1.7 mole thiol/mole hepcidin
same,Stability,[2],"Unstable, rapid"
same,aggregation at low pH,[2]; 40° C.,aggregates more slowly
same,aggregate by SEC,"[2]; 40° C., after 24 hours",> 95%
same,aggregate by SEC,[2]; within time it took to test the material by SEC,38%
"Vendor 1, Lot 2: commercially available hepcidin-25 batch, unpurified",Average mole thiol/[mole hepcidin],[1],>0.2 mole thiol/mole hepcidin
same,Stability,[2],"Unstable, rapid"
"Vendor 2, Lot 1: commercially available hepcidin-25 batch, unpurified",Average mole thiol/[mole hepcidin],[1],0.03 mole thiol/mole hepcidin
same,Stability,[2],"Unstable, slower"
"Vendor 2, Lot 2: commercially available hepcidin-25 batch, unpurified; label printed on two lines of Table 2",Average mole thiol/[mole hepcidin],[1],0.03 mole thiol/mole hepcidin and 0.02 mole thiol/mole hepcidin
same,Stability,[2],"Unstable, slower"
"Vendor 3, Lot 1: commercially available hepcidin-25 batch, unpurified",Average mole thiol/[mole hepcidin],[1],0.03 mole thiol/mole hepcidin
same,Stability,[2],"Unstable, slower"
hepcidin acetate [acetate salt form],relative stability of salt forms,"[3]; 20 mg/mL, 0.9% saline, pH 4.2, 0 or 1 mg/mL maleic acid, 5° C. and 25° C., 47 days",most stable of the three salt forms
same,native pH of solution,[3],about 5
hepcidin chloride [HCl salt],aggregation when maleic acid is present,[3]; 20 mg/mL,initial increase in aggregation
same,native pH of solution,[3],about 2.5
hepcidin trifluoroacetate [TFA],aggregation when maleic acid is present,[3]; 20 mg/mL,initial increase in aggregation
hepcidin-25,main mode of degradation,[4]; accelerated (40° C.) and real time (5° C.) stability studies,aggregation
same,aggregation after reduction of disulfide bonds,[4]; material with 35% aggregate treated with 20 mM DTT,aggregation is reversed
same,safety profile,serum iron; nonclinical and clinical studies,favorable safety profile
same,duration of iron lowering effects,serum iron; single subcutaneous injection,up to 1 week
same,rate of oxidation,"[5]; 40 mg/mL in saline with or without methionine, 37° C. and 45° C., 4.5 months, all conditions",slow
same,effect of methionine excipient on oxidation,"[5]; 40 mg/mL in saline, methionine ten-fold molar excess, 37° C. and 45° C.",reduced the amount of oxidation even further
same,primary degradation products observed,"[5]; 50, 100 and 150 mg/mL, 5° C. over 4.5 months, RP-HPLC",mono or di-oxidation of the methionine at position 21
same,effect of pH on stability (aggregate formation),[6],pH 4.2 being more stable than pH 4.8
